Measured values reported in patent US20040253224.

Test system: Bovine submaxillary gland mucin (Sigma)

With “mouse AMCase (acidic mammalian chitinase)” the “degradation of mucin on 7.5% SDS-PAGE with silver staining after overnight incubation at 37 C, pH 5.0 (125 ug mucin, 500 ng mouse AMCase)” value was “the mucin was degraded by treatment with the AMCase” and the “flow rate of the mucin solution, measured in a vertically positioned glass pipette, after incubation with AMCase” value was “increased with almost a factor of 2”.
